{"source": "patent US20160368979A1", "about": "(CHEMOMAB, published 2016)", "key": {"Eotaxin 2 (CCL24), human [1]": {"biological_target": "T1, Eotaxin 2 (CCL24), human (human, UniProt O00175 27-119)", "T1 sequence": "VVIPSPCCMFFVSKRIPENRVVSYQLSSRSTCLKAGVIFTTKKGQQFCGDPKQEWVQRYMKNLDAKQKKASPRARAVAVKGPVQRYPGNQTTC", "experiment": "cell-based or functional assay"}, "Eotaxin 1 (CCL11), human": {"biological_target": "Eotaxin 1 (CCL11), human (human, UniProt P51671 24-97)", "sequence (P51671 24-97)": "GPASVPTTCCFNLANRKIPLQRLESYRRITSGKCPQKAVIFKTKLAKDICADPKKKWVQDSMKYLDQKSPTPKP", "experiment": "cell-based or functional assay"}, "RANTES (CCL5), human": {"biological_target": "T2, RANTES (CCL5), human (human, UniProt P13501 24-91)", "T2 sequence": "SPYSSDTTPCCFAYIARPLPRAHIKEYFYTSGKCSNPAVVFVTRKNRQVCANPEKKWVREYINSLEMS", "experiment": "cell-based or functional assay"}, "Eotaxin 2 (CCL24), human [2]": {"biological_target": "T1, Eotaxin 2 (CCL24), human", "experiment": "Biacore SPR (eotaxin 2 immobilised on CM-5 chip) and ELISA", "description": "The affinity constant of hCM101 or murine CM101 was evaluated using Biacore T100. This method uses Surface Plasmon Resonance (SPR) electrooptical phenomenon to measure the binding constants and on/off rates between binding partners. Eotaxin 2 was covalently immobilized on a surface of a CM-5 chip, and a solution of CM101 was passed over the surface. The changes in SPR angle were measured and enabled to determine the KD."}}}
{"binder": "hCM101 (fully humanized anti-eotaxin-2 monoclonal antibody, humanized variant VH1/VK3) (antibody, human IgG1, V domains shown, also called VH1/K3; fully humanized CM101) VH: QIQLVQSGPELKKPGASVKVSCRASGYPFTNSGMNWVKQAPGKGLKWMGWINTYNGEPTYTDDFKGRFAFSLETSASTAYLQINNLRNEDTATYFCASHSYGSSYAMDNWGQGTSVTVSS VL: DIVLTQSPDSLAVSLGERATINCKASQSVDYDGDSYMNWYQQKPGQPPKLLIYVASNLKSGIPARFSGSGSGTDFTLTISSLQPEDFATYYCQQSNEEPWTFGGGTKVEIK", "values": [{"measurement": "migration of CD14 negative cells towards Eotaxin 1, 2 and Rantes, % reduction at the high dose", "setting": "Eotaxin 2 (CCL24), human [1]", "result": "~90", "unit": "%"}, {"measurement": "migration of CD14 negative cells towards Eotaxin 1, 2 and Rantes, % reduction at the high dose", "setting": "Eotaxin 1 (CCL11), human", "result": "~90", "unit": "%"}, {"measurement": "migration of CD14 negative cells towards Eotaxin 1, 2 and Rantes, % reduction at the high dose", "setting": "RANTES (CCL5), human", "result": "~90", "unit": "%"}, {"measurement": "Kd", "setting": "Eotaxin 2 (CCL24), human [2]", "result": 3, "unit": "nM"}]}
